This note sets out measurements from patent US20210380703A1.

B1: 368_C12 (antibody, V domains shown)
VH: EVQLLESGGGLVQPGGSLRLSCAASGFTFDSYGMHWVRQAPGKGLEWVASINYNGGYTSYADSVKGRFTISRDNSKNTLYLQMNSLRAEDTAVYYCARAATWHDTHLDYWGQGTLVTVSS
VL: DIQMTQSPSSLSASVGDRVTITCRASQSILTYLNWYQQKPGKAPKLLIYAATSRASGVPSRFSGSGSGTDFTLTISSLQPEDFATYYCQQSDSNPLTFGGGTKVEIK
B2: 369_C09 (antibody, V domains shown)
VH: EVQLLESGGGLVQPGGSLRLSCAASGFTFSSYGMHWVRQAPGKGLEWVSSINYNGGYTGYADSVKGRFTISRDNSKNTLYLQMNSLRAEDTAVYYCARAATWHDTHLDYWGQGTLVTVSS
VL: DIQMTQSPSSLSASVGDRVTITCRASQSIVSYLNWYQQKPGKAPKLVIYAATSRHSGVPSRFSGSGSGTDFTLTISSLQPEDFATYYCQQSYDLPLTFGGGTKVEIK
B3: 369_C06 (antibody, V domains shown)
VH: EVQLLESGGGLVQPGGSLRLSCAASGFTFSSYSMHWVRQAPGKGLEWVSSINYNGGYKSYADSVKGRFTISRDNSKNTLYLQMNSLRAEDTAVYYCARAATWHDTHLDYWGQGTLVTVSS
VL: DIQMTQSPSSLSASVGDRVTITCRASQSILSYVNWYQQKPGKAPKLLIYAATSRASGVPSRFSGSGSGTDFTLTISSLQPEDFATYYCQQSYDSPLTFGGGTKVEIK
B4: 369_A12 (antibody, V domains shown)
VH: EVQLLESGGGLVQPGGSLRLSCAASGFTFSSYSMHWVRQAPGKGLEWVASINYNSGYTGYADSVKGRFTISRDNSKNTLYLQMNSLRAEDTAVYYCARAATWHDTHLDYWGQGTLVTVSS
VL: DIQMTQSPSSLSASVGDRVTITCRASQSILTYLNWYQQKPGKAPKLLIYAATSRHSGVPSRFSGSGSGTDFTLTISSLQPEDFATYYCQQSYDLPLTFGGGTKVEIK
B5: 369_E03 (antibody, V domains shown)
VH: EVQLLESGGGLVQPGGSLRLSCAASGFTFSSYGMHWVRQAPGKGLEWVAGINYNGGYTSYADSVKGRFTISRDNSKNTLYLQMNSLRAEDTAVYYCARAATWHDTHLDYWGQGTLVTVSS
VL: DIQMTQSPSSLSASVGDRVTITCRASQSILSYVNWYQQKPGKAPKLLIYAATSLASGVPSRFSGSGSGTDFTLTISSLQPEDFATYYCQQSYENPLTFGGGTKVEIK
B6: 370_B06 (antibody, V domains shown)
VH: EVQLLESGGGLVQPGGSLRLSCAASGFTFSSYGMHWVRQAPGKGLEWVAGINYNGGYTSYADSVKGRFTISRDNSKNTLYLQMNSLRAEDTAVYYCARAATWHDTHLDYWGQGTLVTVSS
VL: DIQMTQSPSSLSASVGDRVTITCRASQSIVSYVNWYQQKPGKAPKLVIYAATSRASGVPSRFSGSGSGTDFTLTISSLQPEDFATYYCQQSYETPLTFGGGTKVEIK
B7: 369_B08 (antibody, V domains shown)
VH: EVQLLESGGGLVQPGGSLRLSCAASGFTFDSYGMHWVRQAPGKGLEWVSSINYNGGYTSYADSVKGRFTISRDNSKNTLYLQMNSLRAEDTAVYYCARAATWHDTHLDYWGQGTLVTVSS
VL: DIQMTQSPSSLSASVGDRVTITCRASQSILSYVNWYQQKPGKAPKLLIYAATSRASGVPSRFSGSGSGTDFTLTISSLQPEDFATYYCQQSYESPLTFGGGTKVEIK
B8: 368_G11 (antibody, V domains shown)
VH: EVQLLESGGGLVQPGGSLRLSCAASGFTFDSYGMHWVRQAPGKGLEWVSGINYNSGYKSYADSVKGRFTISRDNSKNTLYLQMNSLRAEDTAVYYCARAATWHDTALDYWGQGTLVTVSS
VL: DIQMTQSPSSLSASVGDRVTITCRASQSILTYLNWYQQKPGKAPKLLIYAATSRASGVPSRFSGSGSGTDFTLTISSLQPEDFATYYCQQSDNTPLTFGGGTKVEIK
B9: 369_A04 (antibody, V domains shown)
VH: EVQLLESGGGLVQPGGSLRLSCAASGFTFDSYGMHWVRQAPGKGLEWVASINYNGGYKSYADSVKGRFTISRDNSKNTLYLQMNSLRAEDTAVYYCARAATWHDTHLDYWGQGTLVTVSS
VL: DIQMTQSPSSLSASVGDRVTITCRASQSIVSYVNWYQQKPGKAPKLVIYAATSLASGVPSRFSGSGSGTDFTLTISSLQPEDFATYYCQQSYDLPLTFGGGTKVEIK
B10: 369_B07 (antibody, V domains shown)
VH: EVQLLESGGGLVQPGGSLRLSCAASGFTFDSYGMHWVRQAPGKGLEWVANINYNGGYKSYADSVKGRFTISRDNSKNTLYLQMNSLRAEDTAVYYCARAATWHDTHLDYWGQGTLVTVSS
VL: DIQMTQSPSSLSASVGDRVTITCRASQSIVSYVNWYQQKPGKAPKLVIYAATSLASGVPSRFSGSGSGTDFTLTISSLQPEDFATYYCQQSYDLPLTFGGGTKVEIK
B11: 368_H03 (antibody, V domains shown)
VH: EVQLLESGGGLVQPGGSLRLSCAASGFTFDDYSMHWVRQAPGKGLEWVASINYNGGYTGYADSVKGRFTISRDNSKNTLYLQMNSLRAEDTAVYYCARAATWHDTHLDYWGQGTLVTVSS
VL: DIQMTQSPSSLSASVGDRVTITCRASQSILSYVNWYQQKPGKAPKLVIYAVTSRHSGVPSRFSGSGSGTDFTLTISSLQPEDFATYYCQQSYSNPLTFGGGTKVEIK
B12: 368_E08 (antibody, V domains shown)
VH: EVQLLESGGGLVQPGGSLRLSCAASGFTFDSYGMHWVRQAPGKGLEWVANINYNSGYTGYADSVKGRFTISRDNSKNTLYLQMNSLRAEDTAVYYCARAATWHDTHLDYWGQGTLVTVSS
VL: DIQMTQSPSSLSASVGDRVTITCRASQSILSYVNWYQQKPGKAPKLVIYAATSLHSGVPSRFSGSGSGTDFTLTISSLQPEDFATYYCQQSYETPLTFGGGTKVEIK
B13: 365_G07 (antibody, V domains shown)
VH: EVQLLESGGGLVQPGGSLRLSCAASGFTFDSYGMHWVRQAPGKGLEWVSSINYNGGYTSYADSVKGRFTISRDNSKNTLYLQMNSLRAEDTAVYYCARAANWHDTALDYWGQGTLVTVSS
VL: DIQMTQSPSSLSASVGDRVTITCRASQSIVSYLNWYQQKPGKAPKLLIYAATSRASGVPSRFSGSGSGTDFTLTISSLQPEDFATYYCQQSYDNPLTFGGGTKVEIK
B14: 368_D06 (antibody, V domains shown)
VH: EVQLLESGGGLVQPGGSLRLSCAASGFTFSSYGMNWVRQAPGKGLEWVSNINYNGGYTGYADSVKGRFTISRDNSKNTLYLQMNSLRAEDTAVYYCARAATWHDTHLDYWGQGTLVTVSS
VL: DIQMTQSPSSLSASVGDRVTITCRASQSILSYVNWYQQKPGKAPKLVIYAATSRHSGVPSRFSGSGSGTDFTLTISSLQPEDFATYYCQQSYENPLTFGGGTKVEIK
B15: 369_C11 (antibody, V domains shown)
VH: EVQLLESGGGLVQPGGSLRLSCAASGFTFSDYGMHWVRQAPGKGLEWVAGINYNGGYTGYADSVKGRFTISRDNSKNTLYLQMNSLRAEDTAVYYCARAATWHDTHLDYWGQGTLVTVSS
VL: DIQMTQSPSSLSASVGDRVTITCRASQSILSYLNWYQQKPGKAPKLVIYAATSRASGVPSRFSGSGSGTDFTLTISSLQPEDFATYYCQQSYDTPLTFGGGTKVEIK

The assay deals with human Fc (human). The assay is described as follows: ELISA, negative control.
B1 returned an optical density of 0.346 OD.

On to B2, for which the optical density was found to be 0.32 OD.

Consider B3, for which the optical density turned out to be 0.414 OD.

Molecule B4 had an optical density of 0.461 OD.

B5: the optical density was determined as 0.63 OD.

For B6, the optical density stood at 0.441 OD.

The molecule B7 registered an optical density of 0.309 OD.

In turn, B8 returned an optical density of 0.306 OD.

For the molecule B9, the optical density is 0.353 OD.

Regarding B10, the optical density amounted to 0.319 OD.

B11: the optical density amounted to 0.343 OD.

For B12, the optical density was 0.255 OD.

Molecule B13 returned an optical density of 0.331 OD.

In turn, B14 showed an optical density of 0.265 OD.

As for B15, the optical density is 0.378 OD.
